The values below are quoted from earlier work in PMC3240149.

A word on the Ki: it is the dissociation constant of the complex between target and ligand, obtained from inhibition or displacement.

One data set deals with MMP-2 (Homo sapiens) (UniProt P08253).
Data set [1] deals with TACE (ADAM-17) (Homo sapiens) (UniProt P78536).
For another data set, the target named is MMP-3 (Homo sapiens) (UniProt P08254).
Chain of UniProt P08254 (P08254 100-477): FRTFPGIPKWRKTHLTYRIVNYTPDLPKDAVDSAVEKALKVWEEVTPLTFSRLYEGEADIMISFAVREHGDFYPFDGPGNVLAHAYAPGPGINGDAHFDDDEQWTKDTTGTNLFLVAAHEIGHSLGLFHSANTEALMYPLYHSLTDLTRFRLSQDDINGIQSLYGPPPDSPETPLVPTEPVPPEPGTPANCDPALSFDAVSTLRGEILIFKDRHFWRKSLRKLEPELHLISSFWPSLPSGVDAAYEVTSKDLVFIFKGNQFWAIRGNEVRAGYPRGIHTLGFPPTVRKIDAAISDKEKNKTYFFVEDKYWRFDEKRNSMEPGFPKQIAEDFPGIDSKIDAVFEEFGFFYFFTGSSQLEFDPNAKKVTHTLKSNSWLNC

Chain of UniProt P08253 (P08253 110-660): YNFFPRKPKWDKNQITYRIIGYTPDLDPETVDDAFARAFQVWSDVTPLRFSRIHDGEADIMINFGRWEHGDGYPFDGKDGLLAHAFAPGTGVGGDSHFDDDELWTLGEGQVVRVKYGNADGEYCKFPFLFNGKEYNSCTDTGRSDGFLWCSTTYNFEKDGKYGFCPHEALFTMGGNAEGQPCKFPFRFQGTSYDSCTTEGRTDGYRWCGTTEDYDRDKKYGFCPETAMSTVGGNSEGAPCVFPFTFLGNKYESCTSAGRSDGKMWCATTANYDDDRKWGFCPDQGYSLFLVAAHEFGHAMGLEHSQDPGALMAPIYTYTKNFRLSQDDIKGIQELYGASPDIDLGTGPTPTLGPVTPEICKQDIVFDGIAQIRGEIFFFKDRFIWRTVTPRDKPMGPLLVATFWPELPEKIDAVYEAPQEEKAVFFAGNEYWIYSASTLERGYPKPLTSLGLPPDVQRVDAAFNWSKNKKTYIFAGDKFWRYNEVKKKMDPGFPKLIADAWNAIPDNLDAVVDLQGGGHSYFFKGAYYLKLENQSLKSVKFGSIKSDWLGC
Chain of UniProt P78536 (P78536 215-671): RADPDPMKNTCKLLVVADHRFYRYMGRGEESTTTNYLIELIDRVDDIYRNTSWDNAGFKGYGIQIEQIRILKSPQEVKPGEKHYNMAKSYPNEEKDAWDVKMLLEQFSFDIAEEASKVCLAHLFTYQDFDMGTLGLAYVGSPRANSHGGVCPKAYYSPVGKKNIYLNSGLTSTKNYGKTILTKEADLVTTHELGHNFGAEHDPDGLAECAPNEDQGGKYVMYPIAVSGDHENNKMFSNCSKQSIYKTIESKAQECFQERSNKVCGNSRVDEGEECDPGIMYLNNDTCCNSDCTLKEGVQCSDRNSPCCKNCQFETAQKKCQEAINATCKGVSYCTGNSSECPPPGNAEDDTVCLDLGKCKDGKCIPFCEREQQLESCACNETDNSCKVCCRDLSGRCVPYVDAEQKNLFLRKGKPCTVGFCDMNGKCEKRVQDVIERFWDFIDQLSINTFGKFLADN

For TIMP-2 (from UniProt P16035), the Ki with MMP-2 (Homo sapiens) is 1000 nM.

As to TIMP-3 (from UniProt P35625), the Ki was 0.182 nM in data set [1] and 67 nM with MMP-3 (Homo sapiens).
